B1: Speckle-type POZ protein (Homo sapiens), O43791 (parent)
chain: MSRVPSPPPPAEMSSGPVAESWCYTQIKVVKFSYMWTINNFSFCREEMGEVIKSSTFSSGANDKLKWCLRVNPKGLDEESKDYLSLYLLLVSCPKSEVRAKFKFSILNAKGEETKAMESQRAYRFVQGKDWGFKKFIRRDFLLDEANGLLPDDKLTLFCEVSVVQDSVNISGQNTMNMVKVPECRLADELGGLWENSRFTDCCLCVAGQEFQAHKAILAARSPVFSAMFEHEMEESKKNRVEINDVEPEVFKEMMCFIYTGKAPNLDKMADDLLAAADKYALERLKVMCEDALCSNLSVENAAEILILADLHSADQLKTQAVDFINYHASDVLETSGWKSMVVSHPHLVAEAYRSLASAQCPFLGPPRKRLKQS
partner: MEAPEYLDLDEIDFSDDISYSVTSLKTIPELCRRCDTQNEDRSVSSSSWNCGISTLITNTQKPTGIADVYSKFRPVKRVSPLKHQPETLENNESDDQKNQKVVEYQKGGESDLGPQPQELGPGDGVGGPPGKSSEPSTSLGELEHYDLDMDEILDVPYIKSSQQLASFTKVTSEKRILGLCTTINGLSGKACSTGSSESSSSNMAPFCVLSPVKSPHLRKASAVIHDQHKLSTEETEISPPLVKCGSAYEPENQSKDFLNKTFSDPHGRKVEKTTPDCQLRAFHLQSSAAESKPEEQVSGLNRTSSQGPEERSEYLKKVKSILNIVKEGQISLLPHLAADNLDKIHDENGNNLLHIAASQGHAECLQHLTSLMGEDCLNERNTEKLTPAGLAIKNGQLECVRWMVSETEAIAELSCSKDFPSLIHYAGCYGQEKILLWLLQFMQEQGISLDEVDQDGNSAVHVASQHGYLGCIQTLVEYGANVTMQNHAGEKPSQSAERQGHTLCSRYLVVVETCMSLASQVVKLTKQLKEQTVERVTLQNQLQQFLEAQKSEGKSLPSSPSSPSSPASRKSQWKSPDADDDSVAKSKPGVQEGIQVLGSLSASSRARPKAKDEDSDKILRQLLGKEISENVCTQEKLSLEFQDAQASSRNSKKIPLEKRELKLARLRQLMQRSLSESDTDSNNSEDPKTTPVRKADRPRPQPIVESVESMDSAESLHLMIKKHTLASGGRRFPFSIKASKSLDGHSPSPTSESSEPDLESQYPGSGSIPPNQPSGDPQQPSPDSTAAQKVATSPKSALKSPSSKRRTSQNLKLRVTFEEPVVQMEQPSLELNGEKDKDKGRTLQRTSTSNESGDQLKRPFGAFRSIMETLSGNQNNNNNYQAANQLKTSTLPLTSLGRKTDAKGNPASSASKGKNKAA
B2: Speckle-type POZ protein (Homo sapiens), O43791 (parent)
chain: B1 chain
partner: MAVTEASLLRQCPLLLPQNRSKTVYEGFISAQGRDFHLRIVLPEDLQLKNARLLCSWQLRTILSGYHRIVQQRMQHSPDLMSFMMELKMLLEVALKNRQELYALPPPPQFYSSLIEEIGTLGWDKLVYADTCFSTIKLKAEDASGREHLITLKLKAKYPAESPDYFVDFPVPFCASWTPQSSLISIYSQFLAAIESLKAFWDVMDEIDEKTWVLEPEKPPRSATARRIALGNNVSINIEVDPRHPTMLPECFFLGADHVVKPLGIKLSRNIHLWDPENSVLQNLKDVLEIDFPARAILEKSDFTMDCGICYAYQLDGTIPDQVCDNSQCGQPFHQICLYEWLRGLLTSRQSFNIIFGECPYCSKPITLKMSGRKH
B3: Speckle-type POZ protein (Homo sapiens), O43791 (parent)
chain: B1 chain
partner: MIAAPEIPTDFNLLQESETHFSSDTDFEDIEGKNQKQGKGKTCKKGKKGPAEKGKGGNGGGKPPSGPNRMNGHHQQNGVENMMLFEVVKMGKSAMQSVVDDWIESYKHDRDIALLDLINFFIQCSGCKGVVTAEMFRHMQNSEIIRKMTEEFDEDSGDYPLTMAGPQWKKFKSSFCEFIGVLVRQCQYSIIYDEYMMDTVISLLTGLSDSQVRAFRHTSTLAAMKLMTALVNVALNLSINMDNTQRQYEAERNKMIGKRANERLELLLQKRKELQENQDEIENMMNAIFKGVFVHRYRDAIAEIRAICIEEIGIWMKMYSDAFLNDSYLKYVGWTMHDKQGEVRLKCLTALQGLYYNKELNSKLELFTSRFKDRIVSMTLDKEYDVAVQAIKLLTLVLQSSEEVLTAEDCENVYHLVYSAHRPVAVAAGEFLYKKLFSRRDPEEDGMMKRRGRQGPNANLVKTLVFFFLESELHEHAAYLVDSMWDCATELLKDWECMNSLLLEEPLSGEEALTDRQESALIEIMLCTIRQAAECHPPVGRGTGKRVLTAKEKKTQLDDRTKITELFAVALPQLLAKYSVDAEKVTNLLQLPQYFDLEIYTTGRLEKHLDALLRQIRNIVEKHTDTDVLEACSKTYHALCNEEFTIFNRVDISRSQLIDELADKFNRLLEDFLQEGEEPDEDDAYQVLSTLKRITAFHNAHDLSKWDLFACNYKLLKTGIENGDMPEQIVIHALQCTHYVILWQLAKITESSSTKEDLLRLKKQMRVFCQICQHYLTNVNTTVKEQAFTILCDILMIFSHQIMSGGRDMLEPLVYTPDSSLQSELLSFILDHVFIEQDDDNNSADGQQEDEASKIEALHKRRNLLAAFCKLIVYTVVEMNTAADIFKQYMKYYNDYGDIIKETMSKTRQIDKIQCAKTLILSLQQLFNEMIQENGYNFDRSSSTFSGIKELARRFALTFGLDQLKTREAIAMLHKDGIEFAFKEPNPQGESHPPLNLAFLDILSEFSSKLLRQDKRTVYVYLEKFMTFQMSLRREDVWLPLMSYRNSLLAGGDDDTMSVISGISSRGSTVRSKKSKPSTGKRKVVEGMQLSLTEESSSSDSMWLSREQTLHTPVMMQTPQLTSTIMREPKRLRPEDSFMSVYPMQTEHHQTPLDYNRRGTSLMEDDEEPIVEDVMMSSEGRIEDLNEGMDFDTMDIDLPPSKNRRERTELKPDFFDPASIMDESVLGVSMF
B4: Speckle-type POZ protein (Homo sapiens), O43791 (parent)
chain: B1 chain
partner: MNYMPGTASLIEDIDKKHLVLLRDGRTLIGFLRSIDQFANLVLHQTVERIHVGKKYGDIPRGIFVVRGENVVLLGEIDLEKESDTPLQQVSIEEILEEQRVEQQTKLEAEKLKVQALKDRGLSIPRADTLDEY
B5: Speckle-type POZ protein (Homo sapiens), O43791 (parent)
chain: B1 chain
partner: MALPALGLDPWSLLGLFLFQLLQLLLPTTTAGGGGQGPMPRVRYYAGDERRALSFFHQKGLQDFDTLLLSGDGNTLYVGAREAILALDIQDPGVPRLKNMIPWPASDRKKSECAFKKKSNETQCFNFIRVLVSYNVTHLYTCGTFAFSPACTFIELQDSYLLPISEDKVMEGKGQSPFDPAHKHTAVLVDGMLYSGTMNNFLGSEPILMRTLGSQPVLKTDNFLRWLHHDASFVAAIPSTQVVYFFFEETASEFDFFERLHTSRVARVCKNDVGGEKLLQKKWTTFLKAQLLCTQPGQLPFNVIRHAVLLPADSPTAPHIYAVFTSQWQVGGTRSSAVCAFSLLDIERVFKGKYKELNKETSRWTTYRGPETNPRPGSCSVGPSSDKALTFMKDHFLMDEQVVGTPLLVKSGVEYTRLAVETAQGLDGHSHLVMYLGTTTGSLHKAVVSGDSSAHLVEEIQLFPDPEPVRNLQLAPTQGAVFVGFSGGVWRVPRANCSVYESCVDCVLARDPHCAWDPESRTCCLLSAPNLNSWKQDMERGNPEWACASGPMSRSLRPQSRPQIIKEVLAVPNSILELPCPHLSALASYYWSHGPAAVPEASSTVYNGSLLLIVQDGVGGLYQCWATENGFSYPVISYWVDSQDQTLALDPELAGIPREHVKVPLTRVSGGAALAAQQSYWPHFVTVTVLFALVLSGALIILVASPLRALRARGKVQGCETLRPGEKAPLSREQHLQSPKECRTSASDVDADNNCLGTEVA
B6: Speckle-type POZ protein (Homo sapiens), O43791 (parent)
chain: B1 chain
partner: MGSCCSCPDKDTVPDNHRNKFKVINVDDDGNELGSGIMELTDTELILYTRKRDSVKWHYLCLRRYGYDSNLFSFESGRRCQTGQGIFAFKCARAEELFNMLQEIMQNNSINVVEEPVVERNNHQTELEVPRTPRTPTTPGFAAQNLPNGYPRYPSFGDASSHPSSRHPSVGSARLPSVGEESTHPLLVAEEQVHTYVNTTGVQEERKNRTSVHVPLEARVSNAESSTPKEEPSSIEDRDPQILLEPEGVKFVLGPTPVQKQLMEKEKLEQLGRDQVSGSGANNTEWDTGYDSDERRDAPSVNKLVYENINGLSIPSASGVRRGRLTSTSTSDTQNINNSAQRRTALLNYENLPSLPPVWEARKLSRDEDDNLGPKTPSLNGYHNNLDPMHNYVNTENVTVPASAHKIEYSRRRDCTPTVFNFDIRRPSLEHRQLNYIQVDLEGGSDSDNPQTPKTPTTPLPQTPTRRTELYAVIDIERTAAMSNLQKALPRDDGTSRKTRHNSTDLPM

Variants of: B1
Conditions: with sncap_human SNCAIP

Row | effect of a mutation on the interaction | Variant
1 | with no effect | F133V

Variants of: B1
Conditions: with sncap_human SNCAIP
Remark: another data set of the same source

Row | effect of a mutation on the interaction | Variant
2 | with no effect | F133L

Variants of: B1
Conditions: with sncap_human SNCAIP
Remark: another data set of the same source

Row | effect of a mutation on the interaction | Variant
3 | with no effect | F102C

Variants of: B2
Conditions: with fancl_human FANCL

Row | effect of a mutation on the interaction | Variant
4 | with no effect | Y87C

Variants of: B2
Conditions: with fancl_human FANCL
Remark: another data set of the same source

Row | effect of a mutation on the interaction | Variant
5 | with no effect | F133L

Variants of: B3
Conditions: with stag2_human STAG2, Q8N3U4

Row | effect of a mutation on the interaction | Variant
6 | with no effect | F102C

Variants of: B3
Conditions: with stag2_human STAG2, Q8N3U4
Remark: another data set of the same source

Row | effect of a mutation on the interaction | Variant
7 | with no effect | F133V

Variants of: B3
Conditions: with stag2_human STAG2, Q8N3U4
Remark: another data set of the same source

Row | effect of a mutation on the interaction | Variant
8 | with no effect | F133L

Variants of: B3
Conditions: with stag2_human STAG2, Q8N3U4
Remark: another data set of the same source

Row | effect of a mutation on the interaction | Variant
9 | with no effect | Y87C

Variants of: B4
Conditions: with lsm1_human LSM1, O15116

Row | effect of a mutation on the interaction | Variant
10 | with no effect | F133L

Variants of: B4
Conditions: with lsm1_human LSM1, O15116
Remark: another data set of the same source

Row | effect of a mutation on the interaction | Variant
11 | with no effect | F133V

Variants of: B4
Conditions: with lsm1_human LSM1, O15116
Remark: another data set of the same source

Row | effect of a mutation on the interaction | Variant
12 | with no effect | Y87C

Variants of: B5
Conditions: with sem4a_human SEMA4A

Row | effect of a mutation on the interaction | Variant
13 | with no effect | Y87C

Variants of: B5
Conditions: with sem4a_human SEMA4A
Remark: another data set of the same source

Row | effect of a mutation on the interaction | Variant
14 | with no effect | F133V

Variants of: B5
Conditions: with sem4a_human SEMA4A
Remark: another data set of the same source

Row | effect of a mutation on the interaction | Variant
15 | with no effect | F133L

Variants of: B5
Conditions: with sem4a_human SEMA4A
Remark: another data set of the same source

Row | effect of a mutation on the interaction | Variant
16 | with no effect | F102C

Variants of: B6
Conditions: with frs2_human FRS2, Q8WU20

Row | effect of a mutation on the interaction | Variant
17 | with no effect | F133V
